This note sets out measurements from publication PMC9467613 (mAbs, 2022).

Where only a bound is given, the exact number is not on record here.

Targets include B05; A06; B01; G05.
Holding throughout (test): SPR
Background: SPR reads the build-up and loss of mass on a sensor chip optically.

Assay [1] deals with B7-H4 purified monomeric recombinant human protein (Homo sapiens, UniProt Q7Z7D3).

B1: A04 (scFv, V domains shown)
VH: EVQLVESGGGVVQPGRSLRLSCAASGFTFSSRSMNWVRQAPGKGLEWVSAISGSGDTTYYADSVKGRFTISRDNSKNTLYLQMNSLRAEDTAVYYCARKRWYGMDVWGQGTTVTVSS
VL: SYELTQPPSVSVAPGKTARITCGGNNIGSKSVHWYQQKPGQAPVLVVYDDSDRPSGIPERFSGSNSGNTATLTISRVEAGDEADYYCQVWDRGMIFGTGTKLTVL
Broadly, the Kd is the constant that tells how readily two partners part at equilibrium. Usually koff stands for a measure of how fast the partners let go of each other. In general, kon refers to the rate constant with which the complex forms. On to B1, for which, in assay [1], the Kd was determined as 0.069 nM, the koff came out at 2.1e-05 s⁻¹ and the kon worked out at 310000 M⁻¹ s⁻¹.

B2: parental antibody against B7-H4, scFv-Fc (scFv, V domains shown)
VH: EVQLVESGGGVVQPGRSLRLSCAASGFTFSSYSMNWVRQAPGKGLEWVSAISGSGGSTYYADSVKGRFTISRDNSKNTLYLQMNSLRAEDTAVYYCARKRWYGMDVWGQGTTVTVSS
VL: SYELTQPPSVSVAPGKTARITCGGNNIGSKSVHWYQQKPGQAPVLVVYDDSDRPSGIPERFSGSNSGNTATLTISRVEAGDEADYYCQVWDSRTYVFGTGTKLTVL
With B2, in assay [1], the Kd was 7.43 nM, the koff amounted to 0.0033 s⁻¹ and the kon was 450000 M⁻¹ s⁻¹.

B3: B7-H4 purified monomeric recombinant human protein (natural protein)
chain: LIIGFGISGRHSITVTTVASAGNIGEDGILSCTFEPDIKLSDIVIQWLKEGVLGLVHEFKEGKDELSEQDEMFRGRTAVFADQVIVGNASLRLKNVQLTDAGTYKCYIITSKGKGNANLEYKTGAFSMPEVNVDYNASSETLRCEAPRWFPQPTVVWASQVDQGANFSEVSNTSFELNSENVTMKVVSVLYNVTINNTYSCMIENDIAKATGDIKVTESEIKRRSHLQLLNSKAS
Take B3: the Kd is under 0.068 nM with B05, under 0.034 nM with A06, under 0.032 nM with B01 and under 0.063 nM with G05. For the same molecule, the koff with B05, in the assay with A06, with B01 and with G05 was under 1e-05 s⁻¹ throughout.
